Experimental data reported in US20180118841A1.

Tests used:
[1] = biological target: OX40 human/mouse chimera 1544 (human; mouse) (UniProt P47741); assay: FACS, 293-F transfectants; MFI/isotype control
[2] = biological target: CD137 human/mouse chimera 1550 (human; mouse) (UniProt P20334); assay: FACS, 293-F transfectants; MFI/isotype, normalized to full-length CD137
Sequence of CD137 human/mouse chimera 1550 (human; mouse) (P20334 other isoform, or with tags, fused parts or gaps mutant limits assumed): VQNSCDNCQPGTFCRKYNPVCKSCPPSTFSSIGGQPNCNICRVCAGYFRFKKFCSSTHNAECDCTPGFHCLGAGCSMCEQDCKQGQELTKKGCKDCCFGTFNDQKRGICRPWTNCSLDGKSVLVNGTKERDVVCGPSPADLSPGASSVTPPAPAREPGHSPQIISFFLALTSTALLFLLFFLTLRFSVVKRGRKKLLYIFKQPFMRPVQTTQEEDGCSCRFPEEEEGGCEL

Sequence of OX40 human/mouse chimera 1544 (human; mouse) (P47741 other isoform, or with tags, fused parts or gaps mutant limits assumed): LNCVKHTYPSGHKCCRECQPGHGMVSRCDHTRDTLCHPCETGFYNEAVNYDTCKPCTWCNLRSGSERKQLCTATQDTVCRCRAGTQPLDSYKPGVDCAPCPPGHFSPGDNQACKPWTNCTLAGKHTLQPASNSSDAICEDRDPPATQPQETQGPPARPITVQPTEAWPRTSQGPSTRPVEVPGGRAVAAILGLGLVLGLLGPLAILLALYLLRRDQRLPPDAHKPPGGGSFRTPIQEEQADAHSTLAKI

| relative MFI [1] | relative binding [2] | Binder |
| --- | --- | --- |
| 2 |  | anti-OX40 antibody 1170/1171 (antibody, V domains shown) VH: EVQLLESGGGLVQPGGSLRLSCAASGFTFGGYYMSWVRQAPGKGLEWVSYIPGSGGSTYYADSVKGRFTISRDNSKNTLYLQMNSLRAEDTAVYYCARYDYYWMDYWGQGTLVTVSS VL: DIQMTQSPSSLSASVGDRVTITCRASQSISSYLNWYQQKPGKAPKLLIYAASSLQSGVPSRFSGSGSGTDFTLTISSLQPEDFATYYCQQGHGSYPHTFGQGTKLEIK |
|  | 0.07 | anti-CD137 antibody 1204/1205 (antibody, IgG1, V domains shown) VH: EVQLLESGGGLVQPGGSLRLSCAASGFTFSSYYMGWVRQAPGKGLEWVSGIGSYYGYTGYADSVKGRFTISRDNSKNTLYLQMNSLRAEDTAVYYCARAYYDYNYYYAYFDYWGQGTLVTVSS VL: DIQMTQSPSSLSASVGDRVTITCRASQSISSYLNWYQQKPGKAPKLLIYAASSLQSGVPSRFSGSGSGTDFTLTISSLQPEDFATYYCQQSVPHYPFTFGQGTKLEIK |
